Experimental data published in PMC6061880.

Assays:
Experiment in all cases: EMSA
Details in all cases: 10 mM Tris-Cl pH 7.5, 10 mM MgCl2, 100 mM KCl, 0.5 ug/ul yeast RNA, 7.5% glycerol, SUPERase In; 5 nM RNA; 30 min at 37 C; 6% native PAGE at 4 C
[1] = system: T1, RsmN (Pseudomonas aeruginosa), ORF:fe30c157
T1 sequence: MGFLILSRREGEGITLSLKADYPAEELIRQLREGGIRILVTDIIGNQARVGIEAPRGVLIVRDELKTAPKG

[2] = biological target: RsmA (Pseudomonas aeruginosa) (UniProt O69078)
[3] = system: RsmN (Pseudomonas aeruginosa)

Chain of RsmA (Pseudomonas aeruginosa) (O69078 whole entry): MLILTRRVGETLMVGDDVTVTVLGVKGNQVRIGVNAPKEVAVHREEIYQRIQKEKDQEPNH

Substance: GGAAACUCUGUCCGCUGUGAUGGAUAACGAAGCGGAUGAACUCGAGUUGCGGCGGGUGCUCGCAGCUUGCGGCGAGGAUGCCGAGCUGCGUUCCACCUGGUCGCGUUACCAGUUGGCGCGGUCCGUCAUGCACCGCGAGCCUACCCUGCCGAAGCUGGAUAUCGCUGCGGCGGUCUCUGCUGCCCUGGCCGACGAGGCCGCUCCGCCGAAAGCGGAGAAGGGACCGUGGCGGAUGGUCGGUCGGGGGGGGGUUUUUUUU [mucA internal RNA]
- Kd [1]: 148 nM
- Kd [2]: binds

Substance: GGACAAAAUAAGCAAAUGGAGCGUAUGACCAUGGACAAACCGGCCUCGCGGCAUUUCAGCGUCUUGAUCAUCGAUGAUGAACCCCAGGUGACCUCGGAACUCCGCGAACUGCUGGAAAACGGGGGGGGGUUUUUUUU [pprB leader RNA]
- Kd [1]: 227 nM
- binding [2]: binds

Substance: 5' CrcZ
- Kd [3]: 112 nM

Substance: pprB leader RNA
- Kd [3]: 227 nM

Substance: fhA1 leader RNA
- Kd [3]: 61 nM

Substance: GGUAACGACUCCAGCACAACAAAAACAAAAUCGCGGAGGCGCAGCUAACUGAUUCUUUUGGAGAGGAGUUGCUGUCGGGACCCGUCCCGCAGCCAGUCGGAAGAAGAAUAAAACUGCCUUGAGGCAGCGCACAGACUGGUUGGAUCGCUCGACGAUCAUGGCAGCAUCAGGGGGGGGGUUUUUUUU [5' CrcZ]
- Kd [1]: 112 nM
- binding [2]: no binding

Substance: mucA internal RNA
- Kd [3]: 148 nM

Substance: GGCAUCAGCGACCAAAGCAAUCCGUUUGCUAUUGAACUCCCAGCCUGGGAGAUAUCCCUGAAGCGACUGGCUCAAGGGACGGGUCGACAAACAAAAACAACAAGCCCGAAAUCAUAAUAAAAACAAAGCACGCACCUACUUGGGGGGGGGUUUUUUUU [3' CrcZ]
- binding [1]: no binding
- binding [2]: binds

Substance: pslA RNA (non-specific)
- Kd [3]: > 1000 nM

Substance: GGGUCAGGACAUUGCGCAGGAAGCGCCAAAGACAAUACGGAAACUCAGGGAAUCCACCAUGGAUGGUGGCGUAGCACGGAUGUCAGGAUAGAGGUCUGCAAAACCCCGCCCAAAAGGCGGGGGGGGGUUUUUUUU [RsmY full length]
- binding [1]: binds
- binding [2]: binds
